This note sets out measurements from paper doi:10.1101/2025.03.24.644901, “Substrate recognition by human separase” (bioRxiv, 2025).

The assay deals with T1, inactive apo-separase (separase^C2029S) (human, UniProt Q14674 1-2120, C2029S).
T1 construct: human separase, aa 1-2120, catalytic cysteine replaced with serine; AIL1 and the autocleavage sites are intact in this construct; also called apo-separase^C2029S; source: Sf9 (baculovirus), purified (StrepTactin, heparin, Superose 6)
Briefly: fluorescence polarisation; FlAsH-labelled MBP-SCC1 fragment as probe, inactive separase added; 25 mM HEPES pH 8.0, 100 mM NaCl, 0.1 mg/ml BSA, 0.01% NP40; 25°C; One Site-Total non-linear fit; three repeats. The following applies: both partners purified. Background: In fluorescence polarisation assays a small probe gives low polarisation when free and higher when bound to something large.

T1 sequence (Q14674 whole entry C2029S, the tested form may be a part): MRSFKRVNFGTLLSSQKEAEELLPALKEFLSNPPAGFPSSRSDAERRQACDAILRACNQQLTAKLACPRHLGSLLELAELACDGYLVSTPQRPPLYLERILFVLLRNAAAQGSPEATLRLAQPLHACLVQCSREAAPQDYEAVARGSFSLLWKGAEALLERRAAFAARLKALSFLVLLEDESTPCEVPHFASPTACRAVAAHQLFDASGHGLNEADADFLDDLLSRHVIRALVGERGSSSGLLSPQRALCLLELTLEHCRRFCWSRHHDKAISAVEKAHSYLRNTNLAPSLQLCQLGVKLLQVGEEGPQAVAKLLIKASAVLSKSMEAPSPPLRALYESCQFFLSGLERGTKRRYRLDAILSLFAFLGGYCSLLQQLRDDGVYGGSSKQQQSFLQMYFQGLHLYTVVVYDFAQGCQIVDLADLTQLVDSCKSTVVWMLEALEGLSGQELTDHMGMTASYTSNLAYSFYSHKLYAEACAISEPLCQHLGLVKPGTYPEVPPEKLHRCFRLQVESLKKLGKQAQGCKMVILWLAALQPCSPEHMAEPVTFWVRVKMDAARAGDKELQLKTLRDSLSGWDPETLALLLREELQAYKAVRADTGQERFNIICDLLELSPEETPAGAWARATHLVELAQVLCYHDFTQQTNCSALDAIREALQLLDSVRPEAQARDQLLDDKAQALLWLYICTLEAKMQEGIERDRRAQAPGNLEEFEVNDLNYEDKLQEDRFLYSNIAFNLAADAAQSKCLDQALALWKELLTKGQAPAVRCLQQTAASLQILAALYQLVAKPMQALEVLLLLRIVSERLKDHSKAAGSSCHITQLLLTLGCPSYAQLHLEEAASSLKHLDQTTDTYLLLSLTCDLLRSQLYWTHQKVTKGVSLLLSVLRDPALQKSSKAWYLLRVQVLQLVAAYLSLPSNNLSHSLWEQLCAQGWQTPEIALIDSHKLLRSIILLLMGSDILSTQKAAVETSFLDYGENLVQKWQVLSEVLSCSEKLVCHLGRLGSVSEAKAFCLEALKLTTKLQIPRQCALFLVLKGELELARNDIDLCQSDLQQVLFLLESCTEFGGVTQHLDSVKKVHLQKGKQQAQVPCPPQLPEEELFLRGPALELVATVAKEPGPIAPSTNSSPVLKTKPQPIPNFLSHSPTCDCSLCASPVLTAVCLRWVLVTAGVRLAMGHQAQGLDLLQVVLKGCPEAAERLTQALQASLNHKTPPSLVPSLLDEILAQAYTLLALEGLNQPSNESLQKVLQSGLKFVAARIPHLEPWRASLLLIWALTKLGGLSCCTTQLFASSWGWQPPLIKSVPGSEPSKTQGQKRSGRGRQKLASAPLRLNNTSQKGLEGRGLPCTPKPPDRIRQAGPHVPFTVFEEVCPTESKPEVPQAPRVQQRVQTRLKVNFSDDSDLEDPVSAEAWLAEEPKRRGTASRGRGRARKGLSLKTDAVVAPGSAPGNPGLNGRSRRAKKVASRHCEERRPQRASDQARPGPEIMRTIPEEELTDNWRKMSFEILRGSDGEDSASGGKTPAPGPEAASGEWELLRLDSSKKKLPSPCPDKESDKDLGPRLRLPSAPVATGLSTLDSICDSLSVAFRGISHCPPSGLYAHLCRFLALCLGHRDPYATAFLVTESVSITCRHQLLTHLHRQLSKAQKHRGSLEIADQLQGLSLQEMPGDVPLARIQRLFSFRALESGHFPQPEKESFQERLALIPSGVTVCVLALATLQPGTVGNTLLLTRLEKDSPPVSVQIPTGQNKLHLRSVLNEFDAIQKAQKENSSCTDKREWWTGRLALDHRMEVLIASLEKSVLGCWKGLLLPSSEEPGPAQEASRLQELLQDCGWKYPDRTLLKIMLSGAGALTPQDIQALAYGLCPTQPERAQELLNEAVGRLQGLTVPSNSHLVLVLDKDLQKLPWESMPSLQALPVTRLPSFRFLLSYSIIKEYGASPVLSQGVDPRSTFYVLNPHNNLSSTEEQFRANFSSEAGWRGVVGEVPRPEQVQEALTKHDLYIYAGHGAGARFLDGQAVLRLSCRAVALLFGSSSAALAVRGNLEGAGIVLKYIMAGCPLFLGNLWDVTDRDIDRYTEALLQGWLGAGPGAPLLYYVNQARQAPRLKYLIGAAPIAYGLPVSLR

B1: MBP-SCC1 (aa 350-550) with C-terminal tetracysteine motif, FlAsH-labelled (domain or fragment, human, UniProt O60216 350-550, looked up)
chain: TLDLAPPTKKLMMWKETGGVEKLFSLPAQPLWNNRLLKLFTRCLTPLVPEDLRKRRKGGEADNLDEFLKEFENPEVPREDQQQQHQQRDVIDEPIIEEPSRLQESVMEASRTNIDESAMPPPPPQGVKRKAGQIDPEPVMPPQQVEQMEIPPVELPPEEPPNICQLIPELELLPEKEKEKEKEKEDDEEEEDEDASGGDQD
modifications: FlAsH-EDT2 fluorescent dye on the C-terminal tetracysteine motif
notes: human SCC1/RAD21, aa 350-550 (holds cleavage site 2, R427); also called SCC1^350–550; SCC1 site 2 (aa 350-550); source: E. coli BL21 (DE3), purified (Hitrap MBP, Superdex 200); not shown: 6xHis-MBP, N-terminal, kept
On to B1, for which the binding result is given as “binds”.
